Patent publication US20220306695A1, “COMPSTATIN ANALOGUES AND THEIR MEDICAL USES” (priority 2019, published 2022)
Like-named read-outs stand apart in the source and are kept apart here. Positions of bridges follow the written chain, without caps; N, C: chain ends. Non-standard residues stand in square brackets, D forms with d. Residues, ends and D or L forms follow the SMILES beside them. Trp(1-Me) = Cn1cc(C[C@H](N)C(=O)O)c2ccccc21; 1Nal = N[C@@H](Cc1cccc2ccccc12)C(=O)O; 2Nal = N[C@@H](Cc1ccc2ccccc2c1)C(=O)O; Sar = CNCC(=O)O

B1: Compound 29 (peptide)
peptide: Ac-EGSAICIWQDWGEHRCT-NH2
modifications: disulfide 6-16
SMILES: CC[C@H](C)[C@H](NC(=O)[C@H](C)NC(=O)[C@H](CO)NC(=O)CNC(=O)[C@H](CCC(=O)O)NC(C)=O)C(=O)N[C@H]1CSSC[C@@H](C(=O)N[C@H](C(N)=O)[C@@H](C)O)NC(=O)[C@H](CCCNC(=N)N)NC(=O)[C@H](Cc2c[nH]cn2)NC(=O)[C@H](CCC(=O)O)NC(=O)CNC(=O)[C@H](Cc2c[nH]c3ccccc23)NC(=O)[C@H](CC(=O)O)NC(=O)[C@H](CCC(N)=O)NC(=O)[C@H](Cc2c[nH]c3ccccc23)NC(=O)[C@H]([C@@H](C)CC)NC1=O
B2: Compound 43 (peptide)
peptide: Ac-FCIWQDWGEHRCTGAE-NH2
modifications: disulfide 2-12
SMILES: CC[C@H](C)[C@@H]1NC(=O)[C@@H](NC(=O)[C@H](Cc2ccccc2)NC(C)=O)CSSC[C@@H](C(=O)N[C@H](C(=O)NCC(=O)N[C@@H](C)C(=O)N[C@@H](CCC(=O)O)C(N)=O)[C@@H](C)O)NC(=O)[C@H](CCCNC(=N)N)NC(=O)[C@H](Cc2c[nH]cn2)NC(=O)[C@H](CCC(=O)O)NC(=O)CNC(=O)[C@H](Cc2c[nH]c3ccccc23)NC(=O)[C@H](CC(=O)O)NC(=O)[C@H](CCC(N)=O)NC(=O)[C@H](Cc2c[nH]c3ccccc23)NC1=O
B3: Compound 49 (peptide)
peptide: Ac-EGSAICI[Trp(1-Me)]QDWGEHRC[Sar]E-NH2
modifications: disulfide 6-16
SMILES: CC[C@H](C)[C@H](NC(=O)[C@H](C)NC(=O)[C@H](CO)NC(=O)CNC(=O)[C@H](CCC(=O)O)NC(C)=O)C(=O)N[C@H]1CSSC[C@@H](C(=O)N(C)CC(=O)N[C@@H](CCC(=O)O)C(N)=O)NC(=O)[C@H](CCCNC(=N)N)NC(=O)[C@H](Cc2c[nH]cn2)NC(=O)[C@H](CCC(=O)O)NC(=O)CNC(=O)[C@H](Cc2c[nH]c3ccccc23)NC(=O)[C@H](CC(=O)O)NC(=O)[C@H](CCC(N)=O)NC(=O)[C@H](Cc2cn(C)c3ccccc23)NC(=O)[C@H]([C@@H](C)CC)NC1=O
B4: Compound 50 (peptide)
peptide: Ac-EGSAICI[2Nal]QDWGEHRC[Sar]E-NH2
modifications: disulfide 6-16
SMILES: CC[C@H](C)[C@H](NC(=O)[C@H](C)NC(=O)[C@H](CO)NC(=O)CNC(=O)[C@H](CCC(=O)O)NC(C)=O)C(=O)N[C@H]1CSSC[C@@H](C(=O)N(C)CC(=O)N[C@@H](CCC(=O)O)C(N)=O)NC(=O)[C@H](CCCNC(=N)N)NC(=O)[C@H](Cc2c[nH]cn2)NC(=O)[C@H](CCC(=O)O)NC(=O)CNC(=O)[C@H](Cc2c[nH]c3ccccc23)NC(=O)[C@H](CC(=O)O)NC(=O)[C@H](CCC(N)=O)NC(=O)[C@H](Cc2ccc3ccccc3c2)NC(=O)[C@H]([C@@H](C)CC)NC1=O
B5: Compound 63 (peptide)
peptide: Ac-FCI[1Nal]QDWGEHRCTGAES-NH2
modifications: disulfide 2-12
SMILES: CC[C@H](C)[C@@H]1NC(=O)[C@@H](NC(=O)[C@H](Cc2ccccc2)NC(C)=O)CSSC[C@@H](C(=O)N[C@H](C(=O)NCC(=O)N[C@@H](C)C(=O)N[C@@H](CCC(=O)O)C(=O)N[C@@H](CO)C(N)=O)[C@@H](C)O)NC(=O)[C@H](CCCNC(=N)N)NC(=O)[C@H](Cc2c[nH]cn2)NC(=O)[C@H](CCC(=O)O)NC(=O)CNC(=O)[C@H](Cc2c[nH]c3ccccc23)NC(=O)[C@H](CC(=O)O)NC(=O)[C@H](CCC(N)=O)NC(=O)[C@H](Cc2cccc3ccccc23)NC1=O
B6: Compound 73 (peptide)
peptide: H-[dY]FCI[Trp(1-Me)]QDW[Sar]EHRCTGAES-NH2
modifications: disulfide 3-13
SMILES: CC[C@H](C)[C@@H]1NC(=O)[C@@H](NC(=O)[C@H](Cc2ccccc2)NC(=O)[C@H](N)Cc2ccc(O)cc2)CSSC[C@@H](C(=O)N[C@H](C(=O)NCC(=O)N[C@@H](C)C(=O)N[C@@H](CCC(=O)O)C(=O)N[C@@H](CO)C(N)=O)[C@@H](C)O)NC(=O)[C@H](CCCNC(=N)N)NC(=O)[C@H](Cc2c[nH]cn2)NC(=O)[C@H](CCC(=O)O)NC(=O)CN(C)C(=O)[C@H](Cc2c[nH]c3ccccc23)NC(=O)[C@H](CC(=O)O)NC(=O)[C@H](CCC(N)=O)NC(=O)[C@H](Cc2cn(C)c3ccccc23)NC1=O
B7: Compound 81 (peptide)
peptide: Ac-SE[Sar]CI[Trp(1-Me)]QDWGEHRC[Sar]EA-NH2
modifications: disulfide 4-14
SMILES: CC[C@H](C)[C@@H]1NC(=O)[C@@H](NC(=O)CN(C)C(=O)[C@H](CCC(=O)O)NC(=O)[C@H](CO)NC(C)=O)CSSC[C@@H](C(=O)N(C)CC(=O)N[C@@H](CCC(=O)O)C(=O)N[C@@H](C)C(N)=O)NC(=O)[C@H](CCCNC(=N)N)NC(=O)[C@H](Cc2c[nH]cn2)NC(=O)[C@H](CCC(=O)O)NC(=O)CNC(=O)[C@H](Cc2c[nH]c3ccccc23)NC(=O)[C@H](CC(=O)O)NC(=O)[C@H](CCC(N)=O)NC(=O)[C@H](Cc2cn(C)c3ccccc23)NC1=O
B8: Compound 86 (peptide)
peptide: Ac-SEFCI[Trp(1-Me)]QDWGEHKC[Sar]EA-NH2
modifications: disulfide 4-14
SMILES: CC[C@H](C)[C@@H]1NC(=O)[C@@H](NC(=O)[C@H](Cc2ccccc2)NC(=O)[C@H](CCC(=O)O)NC(=O)[C@H](CO)NC(C)=O)CSSC[C@@H](C(=O)N(C)CC(=O)N[C@@H](CCC(=O)O)C(=O)N[C@@H](C)C(N)=O)NC(=O)[C@H](CCCCN)NC(=O)[C@H](Cc2c[nH]cn2)NC(=O)[C@H](CCC(=O)O)NC(=O)CNC(=O)[C@H](Cc2c[nH]c3ccccc23)NC(=O)[C@H](CC(=O)O)NC(=O)[C@H](CCC(N)=O)NC(=O)[C@H](Cc2cn(C)c3ccccc23)NC1=O
B9: Compound 85 (peptide)
peptide: Ac-EFCI[Trp(1-Me)]QDWGEHRCES-NH2
modifications: disulfide 3-13
SMILES: CC[C@H](C)[C@@H]1NC(=O)[C@@H](NC(=O)[C@H](Cc2ccccc2)NC(=O)[C@H](CCC(=O)O)NC(C)=O)CSSC[C@@H](C(=O)N[C@@H](CCC(=O)O)C(=O)N[C@@H](CO)C(N)=O)NC(=O)[C@H](CCCNC(=N)N)NC(=O)[C@H](Cc2c[nH]cn2)NC(=O)[C@H](CCC(=O)O)NC(=O)CNC(=O)[C@H](Cc2c[nH]c3ccccc23)NC(=O)[C@H](CC(=O)O)NC(=O)[C@H](CCC(N)=O)NC(=O)[C@H](Cc2cn(C)c3ccccc23)NC1=O

Legend:
Human C3 [1] = target: T1, Human C3 (Homo sapiens, UniProt P01024); assay: Affinity measurement by surface plasmon resonance (SPR) with immobilized C3; format: binding; settings: Table 7; immobilized C3, 25° C., pH 7.4
T1 construct: purchased Complement tech A1 13c (so in the source)
Protocol: Surface plasmon resonance (SPR) was used to characterize peptides with respect to their binding affinity (Kd) for C3. Human C3 (Complement tech cat #A1 13c) was immobilised on individual flow cells of CM5 sensor chips (GE Healthcare) using standard amine coupling to a density of approximately 3000 resonance units (RU) in a buffer consisting of 10 mM phosphate pH 7.4, 150 mM NaCl, 0.05% Tween20. For interaction experiments a multi-cycle experiment approach was used and performed using either a Biacore™ T200 or Biacore™ X100 instrument (GE Healthcare) at 25° C. Peptides were injected in increasing concentration series (5-8 different concentrations) for 60-120 s at a flow rate of 30 μL/min in a buffer consisting of 10 mM Tris buffer at pH 7.4, with 150 mM NaCl and 0.05% Tween20. This was followed by a dissociation period for up to 10 min. […] Sensorgrams were double-referenced (reference surface, blanks) prior to analysis of the kinetic profiles by globally fitting data to a 1:1 Langmuir binding model to obtain association and dissociation rates for calculation of the equilibrium dissociation constant Kd. Each peptide was tested at in at least 2 independent experiments.

[2] = system: classical complement pathway; assay: In vitro haemolysis assay (inhibition of classical complement pathway); format: cell-based, human
How it was run: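 Serially diluted compound (9 points) was preincubated 15 min at room temperature with diluted human serum, titrated per batch to give 70-90% maximal haemolysis, in Tris/casein buffer pH 7.4 with Mg2+/Ca2+. Antibody-sensitized sheep erythrocytes were then added for 30 min at 37° C, and the reaction was stopped with EDTA. Haemolysis was read at A405, with IC50 from 4PL fit.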

Human C3 [3] = target: T2, Human C3 (human, UniProt P01024 23-1663); assay: cell-based or functional assay
Human C3 [4] = target: T2, Human C3; assay: SPR, C3 immobilised
How it was run: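 Human C3 amine-coupled to a CM5 chip at ~3000 RU; peptides injected multi-cycle at 5-8 concentrations for 60-120 s in Tris pH 7.4, 150 mM NaCl, 0.05% Tween20 at 25° C, dissociation up to 10 min.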

[5] = Table 3, human serum, sensitized sheep red blood cells, read-out: IC50[nM], in vitro analysis of inhibition of hemolysis
[6] = Table 4, valine 3 versus isoleucine 3 pairs, read-out: CP hemolysis IC50

T2 sequence (P01024 23-1663 limits assumed): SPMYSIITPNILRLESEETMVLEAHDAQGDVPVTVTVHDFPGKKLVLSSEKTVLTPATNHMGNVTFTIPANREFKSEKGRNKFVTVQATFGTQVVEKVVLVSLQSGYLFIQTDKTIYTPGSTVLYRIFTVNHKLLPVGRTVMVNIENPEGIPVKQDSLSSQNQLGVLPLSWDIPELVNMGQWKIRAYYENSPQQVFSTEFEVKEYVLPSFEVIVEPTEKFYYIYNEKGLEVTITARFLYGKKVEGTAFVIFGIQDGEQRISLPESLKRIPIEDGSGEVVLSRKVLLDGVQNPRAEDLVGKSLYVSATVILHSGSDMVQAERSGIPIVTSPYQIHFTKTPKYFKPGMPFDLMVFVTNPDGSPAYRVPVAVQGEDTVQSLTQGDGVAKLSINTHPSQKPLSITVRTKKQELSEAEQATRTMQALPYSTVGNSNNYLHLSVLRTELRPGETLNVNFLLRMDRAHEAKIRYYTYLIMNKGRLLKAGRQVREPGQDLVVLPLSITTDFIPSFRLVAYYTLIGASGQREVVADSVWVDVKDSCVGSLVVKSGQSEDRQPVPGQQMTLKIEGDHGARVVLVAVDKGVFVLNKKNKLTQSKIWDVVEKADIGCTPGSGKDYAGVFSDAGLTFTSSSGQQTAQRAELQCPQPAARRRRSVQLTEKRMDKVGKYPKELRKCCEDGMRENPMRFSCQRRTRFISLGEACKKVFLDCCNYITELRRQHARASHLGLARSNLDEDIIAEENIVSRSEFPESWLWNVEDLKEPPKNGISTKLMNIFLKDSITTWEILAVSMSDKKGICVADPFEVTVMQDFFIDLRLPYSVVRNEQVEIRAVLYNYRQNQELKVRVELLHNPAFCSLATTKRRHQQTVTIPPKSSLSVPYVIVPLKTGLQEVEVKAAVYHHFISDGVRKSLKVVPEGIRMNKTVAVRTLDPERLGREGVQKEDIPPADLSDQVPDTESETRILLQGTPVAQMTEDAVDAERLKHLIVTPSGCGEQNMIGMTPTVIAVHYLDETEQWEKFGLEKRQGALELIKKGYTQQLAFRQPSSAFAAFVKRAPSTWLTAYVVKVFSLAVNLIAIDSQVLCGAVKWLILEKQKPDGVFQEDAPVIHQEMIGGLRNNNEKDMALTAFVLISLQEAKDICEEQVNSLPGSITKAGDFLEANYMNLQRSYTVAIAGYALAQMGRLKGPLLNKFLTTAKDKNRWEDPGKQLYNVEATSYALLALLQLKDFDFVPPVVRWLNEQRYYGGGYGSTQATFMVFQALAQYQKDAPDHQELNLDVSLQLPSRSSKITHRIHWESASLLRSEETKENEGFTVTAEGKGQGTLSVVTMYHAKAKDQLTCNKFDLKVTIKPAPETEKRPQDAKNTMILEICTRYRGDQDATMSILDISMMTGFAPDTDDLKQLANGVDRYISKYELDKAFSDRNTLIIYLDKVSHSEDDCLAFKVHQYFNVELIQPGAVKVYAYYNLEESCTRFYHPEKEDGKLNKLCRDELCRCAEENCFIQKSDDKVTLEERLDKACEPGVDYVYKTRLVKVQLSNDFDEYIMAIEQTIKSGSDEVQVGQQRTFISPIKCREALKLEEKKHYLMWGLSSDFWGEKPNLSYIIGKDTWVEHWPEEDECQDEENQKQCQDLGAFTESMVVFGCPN

| Molecule | Kd (Human C3 [1]) [nM] | IC50 [2, 5] [nM] | IC50 [2, 6] [nM] | IC50 ([2]; Table 5, different residues at position 3 of Ac-IC(1)XWQDWGEHRC(1)T-NH2, read-out: IC50, CP hemolysis) [nM] | IC50[nM], inhibition of hemolysis (Human C3 [3]) [nM] | Kd (Human C3 [4]) [nM] |
| --- | --- | --- | --- | --- | --- | --- |
| CC[C@H](C)[C@H](NC(C)=O)C(=O)N[C@H]1CSSC[C@@H](C(=O)N[C@H](C(N)=O)[C@@H](C)O)NC(=O)[C@H](CCCNC(=N)N)NC(=O)[C@H](Cc2c[nH]cn2)NC(=O)[C@H](CCC(=O)O)NC(=O)CNC(=O)[C@H](Cc2c[nH]c3ccccc23)NC(=O)[C@H](CC(=O)O)NC(=O)[C@H](CCC(N)=O)NC(=O)[C@H](Cc2c[nH]c3ccccc23)NC(=O)[C@H]([C@@H](C)CC)NC1=O [Compound 2] (Ac-ICIWQDWGEHRCT-NH2; disulfide 2-12) | 16 | < 100 | 94 | < 100 |  |  |
| CC[C@H](C)[C@H](NC(C)=O)C(=O)N[C@H]1CSSC[C@@H](C(=O)N[C@H](C(N)=O)[C@@H](C)O)NC(=O)[C@H](CCCNC(=N)N)NC(=O)[C@H](Cc2c[nH]cn2)NC(=O)[C@H](CCC(=O)O)NC(=O)CNC(=O)[C@H](Cc2c[nH]c3ccccc23)NC(=O)[C@H](CC(=O)O)NC(=O)[C@H](CCC(N)=O)NC(=O)[C@H](Cc2cn(C)c3ccccc23)NC(=O)[C@H]([C@@H](C)CC)NC1=O [Compound 4] (Ac-ICI[Trp(1-Me)]QDWGEHRCT-NH2; disulfide 2-12) | 1.5 | < 100 |  |  |  |  |
| CC[C@H](C)[C@H](NC(C)=O)C(=O)N[C@H]1CSSC[C@@H](C(=O)N[C@@H](CO)C(N)=O)NC(=O)[C@H](CCCNC(=N)N)NC(=O)[C@H](Cc2c[nH]cn2)NC(=O)[C@H](CCC(=O)O)NC(=O)CNC(=O)[C@H](Cc2c[nH]c3ccccc23)NC(=O)[C@H](CC(=O)O)NC(=O)[C@H](CCC(N)=O)NC(=O)[C@H](Cc2c[nH]c3ccccc23)NC(=O)[C@H]([C@@H](C)CC)NC1=O [Compound 21] (Ac-ICIWQDWGEHRCS-NH2; disulfide 2-12) | 16 | < 100 | 77 |  |  |  |
| B1 |  |  |  |  | < 100 | 21 |
| B2 |  |  |  |  | < 100 | 3.3 |
| B3 |  |  |  |  | < 100 | 3.2 |
| B4 |  |  |  |  | < 100 | 13 |
| B5 |  |  |  |  | < 100 | 4.3 |
| B6 |  |  |  |  | < 100 | 0.3 |
| B7 |  |  |  |  | < 100 | 9.7 |
| B8 |  |  |  |  | < 100 | 2.6 |
| B9 |  |  |  |  | < 100 | 1.3 |
